Measurements: patent US20200281977A1 (HUMANITAS MIRASOLE S P A, published 2020)

Target: T1, IL-18Rα, human (human, UniProt Q13478 19-541)
T1 construct: whole, on cells; Detected on human NK cells with mouse monoclonal anti-IL-18Rα (Clone 70625; R&D Systems); also called IL-1R5/IL-18R
T1 sequence (looked up): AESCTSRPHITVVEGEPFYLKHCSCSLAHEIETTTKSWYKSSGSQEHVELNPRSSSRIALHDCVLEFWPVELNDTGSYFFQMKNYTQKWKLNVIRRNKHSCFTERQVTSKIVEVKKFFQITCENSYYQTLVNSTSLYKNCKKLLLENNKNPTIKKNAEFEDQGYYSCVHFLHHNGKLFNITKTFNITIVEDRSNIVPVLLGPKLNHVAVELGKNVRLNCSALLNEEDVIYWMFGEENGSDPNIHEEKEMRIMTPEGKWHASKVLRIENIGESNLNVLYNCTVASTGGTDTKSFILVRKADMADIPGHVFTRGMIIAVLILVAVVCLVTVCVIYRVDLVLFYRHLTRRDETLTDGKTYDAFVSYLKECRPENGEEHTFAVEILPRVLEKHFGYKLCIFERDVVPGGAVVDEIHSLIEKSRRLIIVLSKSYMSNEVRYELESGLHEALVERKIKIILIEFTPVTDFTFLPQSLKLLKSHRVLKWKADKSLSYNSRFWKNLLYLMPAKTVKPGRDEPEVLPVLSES
Assay: STED microscopy of human NK cells stimulated with IL-18, co-stained with anti-IL-1R8 and anti-IL-18Rα antibodies
Experimental: Human NK cells were enriched and left to adhere on poly-D-lysine (Sigma-Aldrich)-coated coverslips, stimulated with IL-18 (50 ng ml⁻¹; 1 min, 5 min, 10 min), fixed with 4% PFA, incubated with 5% normal donkey serum (Sigma-Aldrich), 2% BSA, 0.05% Tween in PBS2+ (pH 7.4) (blocking buffer), and then with biotin-conjugated goat polyclonal anti-human IL-1R8 antibody or biotin-conjugated normal goat IgG (all from R&D Systems) and mouse monoclonal anti-IL-18Rα (Clone 70625; R&D Systems) or mouse IgG1 (Invitrogen), all diluted at 5 μg ml⁻¹ in blocking buffer, followed by Alexa Fluor 488-conjugated donkey anti-goat IgG antibody and Alexa Fluor 555 donkey anti-mouse IgG antibody (both from Molecular Probes). Mowiol was used as mounting medium. STED xyz images were acquired in a unidirectional mode with a Leica SP8 STED3X confocal microscope system. Alexa Fluor 488 was excited with a 488 nm argon laser and emission collected from 505 to 550 nm applying a gating between 0.4 and 7 ns to avoid collection of reflection and autofluorescence. Alexa Fluor 555 was excited with a 555/547 nm-tuned white light laser and emission collected from 580 to 620 nm. Line sequential acquisition was applied to avoid fluorescence overlap. The 660 nm CW-depletion laser (80% of power) was used for both excitations. […]

B1: Interleukin-1 receptor 8 (IL-1R8), human (receptor)
chain: MPGVCDRAPDFLSPSEDQVLRPALGSSVALNCTAWVVSGPHCSLPSVQWLKDGLPLGIGGHYSLHEYSWVKANLSEVLVSSVLGVNVTSTEVYGAFTCSIQNISFSSFTLQRAGPTSHVAAVLASLLVLLALLLAALLYVKCRLNVLLWYQDAYGEVEINDGKLYDAYVSYSDCPEDRKFVNFILKPQLERRRGYKLFLDDRDLLPRAEPSADLLVNLSRCRRLIVVLSDAFLSRAWCSHSFREGLCRLLELTRRPIFITFEGQRRDPAHPALRLLRQHRHLVTLLLWRPGSVTPSSDFWKEVQLALPRKVQYRPVEGDPQTQLQDDKDPMLILRGRVPEGRALDSEVDPDPEGDLGVRGPVFGEPSAPPHTSGVSLGESRSSEVDVSDLGSRNYSARTDFYCLVSKDDM
notes: Endogenous IL-1R8 on human primary NK cells; NP_001128525.1, NP_001128526.1, NP_068577.2); also called SIGIRR; single immunoglobulin IL-1R-related receptor
binding result: binds
